{
  "source": "the supplement of paper PMC9112550",
  "about": "“Optimization of the antimicrobial peptide Bac7 by deep mutational scanning” (BMC Biology, 2022);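 also: peptides expressed intracellularly from a pBAD plasmid library in pooled LB shake-flask culture, induced with 0.3% L-arabinose, DNA abundance read by NGS, three biological replicates, DESeq2 with apeglm shrinkage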",
  "data": [
    {"system": "Escherichia coli TOP10", "experiment": "shrunken log2 fold change of peptide-encoding DNA abundance (4.5 h post-induction vs induction); higher = less antimicrobial activity (less host growth inhibition)", "conditions": "time post-induction: 4.5 h; library: site-saturation at positions 5, 18, 19, 20", "values": [
      {"sequence": "RRIRGRPPRLPRPRPRPNRLPRP", "shrunken log2 fold change": 0.104},
      {"sequence": "RRIRGRPPRLPRPRPRPNTIPRP", "shrunken log2 fold change": -0.184},
      {"sequence": "RRIRGRPPRLPRPRPRPNWTPRP", "shrunken log2 fold change": 0.0497},
      {"sequence": "RRIRGRPPRLPRPRPRPNWVPRP", "shrunken log2 fold change": 0.325},
      {"sequence": "RRIRGRPPRLPRPRPRPNYNPRP", "shrunken log2 fold change": -0.262},
      {"sequence": "RRIRGRPPRLPRPRPRPNYPPRP", "shrunken log2 fold change": 0.0611},
      {"sequence": "RRIRGRPPRLPRPRPRPPALPRP", "shrunken log2 fold change": 0.881},
      {"sequence": "RRIRGRPPRLPRPRPRPPAQPRP", "shrunken log2 fold change": 1.4},
      {"sequence": "RRIRGRPPRLPRPRPRPPDDPRP", "shrunken log2 fold change": 1.34},
      {"sequence": "RRIRGRPPRLPRPRPRPPDWPRP", "shrunken log2 fold change": 1.24},
      {"sequence": "RRIRGRPPRLPRPRPRPPFAPRP", "shrunken log2 fold change": 1.91},
      {"sequence": "RRIRGRPPRLPRPRPRPPFTPRP", "shrunken log2 fold change": 0.462},
      {"sequence": "RRIRGRPPRLPRPRPRPPGIPRP", "shrunken log2 fold change": 0.745},
      {"sequence": "RRIRGRPPRLPRPRPRPPGMPRP", "shrunken log2 fold change": 0.989},
      {"sequence": "RRIRGRPPRLPRPRPRPPGQPRP", "shrunken log2 fold change": 0.976},
      {"sequence": "RRIRGRPPRLPRPRPRPPHIPRP", "shrunken log2 fold change": 0.551},
      {"sequence": "RRIRGRPPRLPRPRPRPPIGPRP", "shrunken log2 fold change": 0.735},
      {"sequence": "RRIRGRPPRLPRPRPRPPKLPRP", "shrunken log2 fold change": 0.524},
      {"sequence": "RRIRGRPPRLPRPRPRPPKTPRP", "shrunken log2 fold change": 1.15},
      {"sequence": "RRIRGRPPRLPRPRPRPPKWPRP", "shrunken log2 fold change": 0.469},
      {"sequence": "RRIRGRPPRLPRPRPRPPLFPRP", "shrunken log2 fold change": 0.974},
      {"sequence": "RRIRGRPPRLPRPRPRPPQSPRP", "shrunken log2 fold change": 1.27},
      {"sequence": "RRIRGRPPRLPRPRPRPPRKPRP", "shrunken log2 fold change": 1.26},
      {"sequence": "RRIRGRPPRLPRPRPRPPRSPRP", "shrunken log2 fold change": 1.19},
      {"sequence": "RRIRGRPPRLPRPRPRPPRWPRP", "shrunken log2 fold change": 1.17},
      {"sequence": "RRIRGRPPRLPRPRPRPPTYPRP", "shrunken log2 fold change": 0.206},
      {"sequence": "RRIRGRPPRLPRPRPRPPYDPRP", "shrunken log2 fold change": 0.0844},
      {"sequence": "RRIRGRPPRLPRPRPRPQAIPRP", "shrunken log2 fold change": 0.58},
      {"sequence": "RRIRGRPPRLPRPRPRPQAQPRP", "shrunken log2 fold change": 1.02},
      {"sequence": "RRIRGRPPRLPRPRPRPQCDPRP", "shrunken log2 fold change": 0.479},
      {"sequence": "RRIRGRPPRLPRPRPRPQCKPRP", "shrunken log2 fold change": 0.165},
      {"sequence": "RRIRGRPPRLPRPRPRPQENPRP", "shrunken log2 fold change": 0.462},
      {"sequence": "RRIRGRPPRLPRPRPRPQEQPRP", "shrunken log2 fold change": 0.458},
      {"sequence": "RRIRGRPPRLPRPRPRPQEVPRP", "shrunken log2 fold change": 0.00966},
      {"sequence": "RRIRGRPPRLPRPRPRPQFMPRP", "shrunken log2 fold change": 0.0535},
      {"sequence": "RRIRGRPPRLPRPRPRPQFQPRP", "shrunken log2 fold change": 0.0768},
      {"sequence": "RRIRGRPPRLPRPRPRPQGTPRP", "shrunken log2 fold change": -0.0716},
      {"sequence": "RRIRGRPPRLPRPRPRPQHVPRP", "shrunken log2 fold change": -0.12},
      {"sequence": "RRIRGRPPRLPRPRPRPQIHPRP", "shrunken log2 fold change": 0.32},
      {"sequence": "RRIRGRPPRLPRPRPRPQIPPRP", "shrunken log2 fold change": 0.25},
      {"sequence": "RRIRGRPPRLPRPRPRPQKPPRP", "shrunken log2 fold change": 0.0894},
      {"sequence": "RRIRGRPPRLPRPRPRPQLCPRP", "shrunken log2 fold change": 0.0863},
      {"sequence": "RRIRGRPPRLPRPRPRPQMVPRP", "shrunken log2 fold change": 0.166},
      {"sequence": "RRIRGRPPRLPRPRPRPQPPPRP", "shrunken log2 fold change": 0.998},
      {"sequence": "RRIRGRPPRLPRPRPRPQPWPRP", "shrunken log2 fold change": 0.68},
      {"sequence": "RRIRGRPPRLPRPRPRPQTIPRP", "shrunken log2 fold change": 0.28},
      {"sequence": "RRIRGRPPRLPRPRPRPQTYPRP", "shrunken log2 fold change": 0.0285},
      {"sequence": "RRIRGRPPRLPRPRPRPQVPPRP", "shrunken log2 fold change": -0.0856},
      {"sequence": "RRIRGRPPRLPRPRPRPQVYPRP", "shrunken log2 fold change": 0.23},
      {"sequence": "RRIRGRPPRLPRPRPRPQWGPRP", "shrunken log2 fold change": 0.376},
      {"sequence": "RRIRGRPPRLPRPRPRPQWNPRP", "shrunken log2 fold change": 0.0405},
      {"sequence": "RRIRGRPPRLPRPRPRPQYTPRP", "shrunken log2 fold change": -0.0367},
      {"sequence": "RRIRGRPPRLPRPRPRPQYYPRP", "shrunken log2 fold change": -0.399},
      {"sequence": "RRIRGRPPRLPRPRPRPRAFPRP", "shrunken log2 fold change": 0.793},
      {"sequence": "RRIRGRPPRLPRPRPRPRAIPRP", "shrunken log2 fold change": 0.733},
      {"sequence": "RRIRGRPPRLPRPRPRPRAKPRP", "shrunken log2 fold change": 1.22},
      {"sequence": "RRIRGRPPRLPRPRPRPREDPRP", "shrunken log2 fold change": 1.47},
      {"sequence": "RRIRGRPPRLPRPRPRPRERPRP", "shrunken log2 fold change": 0.789},
      {"sequence": "RRIRGRPPRLPRPRPRPRFAPRP", "shrunken log2 fold change": 0.99},
      {"sequence": "RRIRGRPPRLPRPRPRPRGAPRP", "shrunken log2 fold change": 1.66},
      {"sequence": "RRIRGRPPRLPRPRPRPRGCPRP", "shrunken log2 fold change": 1.37},
      {"sequence": "RRIRGRPPRLPRPRPRPRHQPRP", "shrunken log2 fold change": 0.026},
      {"sequence": "RRIRGRPPRLPRPRPRPRIFPRP", "shrunken log2 fold change": 0.804},
      {"sequence": "RRIRGRPPRLPRPRPRPRIGPRP", "shrunken log2 fold change": 0.779},
      {"sequence": "RRIRGRPPRLPRPRPRPRINPRP", "shrunken log2 fold change": -0.122},
      {"sequence": "RRIRGRPPRLPRPRPRPRKNPRP", "shrunken log2 fold change": 0.74},
      {"sequence": "RRIRGRPPRLPRPRPRPRKSPRP", "shrunken log2 fold change": 0.326},
      {"sequence": "RRIRGRPPRLPRPRPRPRKVPRP", "shrunken log2 fold change": 0.741},
      {"sequence": "RRIRGRPPRLPRPRPRPRLIPRP", "shrunken log2 fold change": 0.166},
      {"sequence": "RRIRGRPPRLPRPRPRPRMMPRP", "shrunken log2 fold change": 0.882},
      {"sequence": "RRIRGRPPRLPRPRPRPRMPPRP", "shrunken log2 fold change": 0.605},
      {"sequence": "RRIRGRPPRLPRPRPRPRPLPRP", "shrunken log2 fold change": 0.902},
      {"sequence": "RRIRGRPPRLPRPRPRPRQLPRP", "shrunken log2 fold change": 0.549},
      {"sequence": "RRIRGRPPRLPRPRPRPRRVPRP", "shrunken log2 fold change": 0.485},
      {"sequence": "RRIRGRPPRLPRPRPRPRSKPRP", "shrunken log2 fold change": 0.781}
    ]}
  ]
}
